B1: human trophinin (other)
chain: MDIDCLTREELGDDSQAWSRFSFEIEARAQENADASTNVNFSRGASTRAGFSDRASISFNGAPSSSGGFSGGPGITFGVAPSTSASFSNTASISFGGTLSTSSSFSSAASISFGCAHSTSTSFSSEASISFGGMPCTSASFSGGVSSSFSGPLSTSATFSGGASSGFGGTLSTTAGFSGVLSTSTSFGSAPTTSTVFSSALSTSTGFGGILSTSVCFGGSPSSSGSFGGTLSTSICFGGSPCTSTGFGGTLSTSVSFGGSSSTSANFGGTLSTSICFDGSPSTGAGFGGALNTSASFGSVLNTSTGFGGAMSTSADFGGTLSTSVCFGGSPGTSVSFGSALNTNAGYGGAVSTNTDFGGTLSTSVCFGGSPSTSAGFGGALNTNASFGCAVSTSASFSGAVSTSACFSGAPITNPGFGGAFSTSAGFGGALSTAADFGGTPSNSIGFGAAPSTSVSFGGAHGTSLCFGGAPSTSLCFGSASNTNLCFGGPPSTSACFSGATSPSFCDGPSTSTGFSFGNGLSTNAGFGGGLNTSAGFGGGLGTSAGFSGGLSTSSGFDGGLGTSAGFGGGPGTSTGFGGGLGTSAGFSGGLGTSAGFGGGLVTSDGFGGGLGTNASFGSTLGTSAGFSGGLSTSDGFGSRPNASFDRGLSTIIGFGSGSNTSTGFTGEPSTSTGFSSGPSSIVGFSGGPSTGVGFCSGPSTSGFSGGPSTGAGFGGGPNTGAGFGGGPSTSAGFGSGAASLGACGFSYG

The target of one test is biotinylated GST (Schistosoma japonicum (Blood fluke), UniProt P08515 = GST, labeled with biotin succinamide). Put plainly: staining of unpermeabilized HT-H, SNG-M and trophinin/tastin-transfected COS-1 cells, avidin-FITC. On the procedure:
(§1) To identify hydrophilic extracellular domains of human trophinin that mediate cell adhesion, individual domains were expressed and evaluated for specific binding to trophinin expressing cells. The trophinin extracellular domain fusion proteins GST551, GST552 and GST553, the GST-N-terminal trophinin domain (residue 1 to 66) and GST were labeled with biotin succinamide (Sigma). SNG-M, HT-H and COS-1 cells transfected with a mixture of human trophinin and tastin cDNA were grown on coverslips and processed for cell staining with the biotinylated proteins essentially as was described for the antibodies to the external domains of trophinin, except that avidin-FITC (Cappel) was used in place of a FITC-secondary antibody.

The target of the test “human trophinin” is B1. The test is described as above. On the procedure: as §1

Regarding B1, the binding result in the test with biotinylated GST is listed as “no binding”.

B2: biotinylated GST-N-terminal trophinin (other)
chain: {GST}-MDIDCLTREELGDDSQAWSRFSFEIEARAQENADASTNVNFSRGASTRAGFSDRASISFNGAPSSS
modifications: also: labeled with biotin succinamide (site not given here)
On to B2, for which the binding result with human trophinin is “no binding”.

The values are drawn from US6111089, “Trophinin, trophinin-assisting proteins and methods to inhibit implantation” (The Burnham Institute, dated 2000).
